Laboratory results taken from paper PMC6300978 (Chemico-biological interactions, 2015).

How the values were obtained:
[1] = probe reaction for UGT1A1; cited from earlier work
[2] = Chemical inhibition of GA glucuronidation; details: GA 2 µM, M2 formation
UGT1A8 = details: mycophenolic acid as substrate of UGT1A8; cited from earlier work
[3] = substrate: CC1(C)C=Cc2c(ccc3c2OC[C@@H](c2ccc(O)cc2O)C3)O1; assay: GA glucuronidation kinetics by recombinant UGT1A1; type: in vitro ADME, human; details: Michaelis–Menten, pH 7.4
[4] = substrate: CC1(C)C=Cc2c(ccc3c2OC[C@@H](c2ccc(O)cc2O)C3)O1; assay: GA glucuronidation kinetics by recombinant UGT1A3; type: in vitro ADME, human; details: other: UGT1A3, M2 formation, Michaelis–Menten; pH 7.4
[5] = substrate: CC1(C)C=Cc2c(ccc3c2OC[C@@H](c2ccc(O)cc2O)C3)O1; assay: GA glucuronidation by recombinant UGT1A8; type: in vitro ADME, human; details: other: UGT1A8, M2 formation, substrate inhibition model; pH 7.4
[6] = substrate: CC1(C)C=Cc2c(ccc3c2OC[C@@H](c2ccc(O)cc2O)C3)O1; assay: GA glucuronidation kinetics by recombinant UGT1A10; type: in vitro ADME, human; details: other: UGT1A10, M2 formation, substrate inhibition model; pH 7.4

Question: For `C#C[C@]1(O)CC[C@H]2[C@@H]3CCc4cc(O)ccc4[C@H]3CC[C@@]21C` [ethylestradiol], which “rate of 3-O-glucuronidation by DLM relative to HLM” value [1] is on record?
Answer: Its value is 10 fold.

Question: With `OC(Cn1cncn1)(Cn1cncn1)c1ccc(F)cc1F` [fluconazole] as the molecule, how does the “remaining GA glucuronidation activity in HIM” value ([2]; inhibitor 1 mM (Fig. 6)) read?
Answer: Its value is “above 85 % of the control”.

Question: For `C=CCc1ccc(O)c(-c2cc(CC=C)ccc2O)c1` [magnolol], which “remaining GA glucuronidation activity in HIM” value ([2]; inhibitor 1 µM) is on record?
Answer: Its value is “above 85 % of the control”.

Question: Which results are given for `COc1c(C)c2c(c(O)c1C/C=C(\C)CCC(=O)O)C(=O)OC2` [mycophenolic acid]?
Answer: Km (UGT1A8): 1.39 µM; remaining GA glucuronidation activity in HIM ([2]; inhibitor 10 µM): 28 % of the control

Question: Which “remaining GA glucuronidation activity in HIM” value ([2]; inhibitor 1 µM) does the source give for `Cc1cn(-c2cc(NC(=O)c3ccc(C)c(Nc4nccc(-c5cccnc5)n4)c3)cc(C(F)(F)F)c2)cn1` [nilotinib] here?
Answer: Its value is “above 85 % of the control”.

B1: recombinant human UGT1A1 (Homo sapiens) (protein)
chain: HAGKILLIPVDGSHWLSMLGAIQQLQQRGHEIVVLAPDASLYIRDGAFYTLKTYPVPFQREDVKESFVSLGHNVFENDSFLQRVIKTYKKIKKDSAMLLSGCSHLLHNKELMASLAESSFDVMLTDPFLPCSPIVAQYLSLPTVFFLHALPCSLEFEATQCPNPFSYVPRPLSSHSDHMTFLQRVKNMLIAFSQNFLCDVVYSPYATLASEFLQREVTVQDLLSSASVWLFRSDFVKDYPRPIMPNMVFVGGINCLHQNPLSQEFEAYINASGEHGIVVFSLGSMVSEIPEKKAMAIADALGKIPQTVLWRYTGTRPSNLANNTILVKWLPQNDLLGHPMTRAFITHAGSHGVYESICNGVPMVMMPLFGDQMDNAKRMETKGAGVTLNVLEMTSEDLENALKAVINDKSYKENIMRLSSLHKDRPVEPLDLAVFWVEFVMRHKGAPHLRPAAHDLTWYQYHSLDVIGFLLAVVLTVAFITFKCCAYGYRKCLGKKGRVKKAHKSKTH
Question: Which Km ([3]; other: UGT1A1, M1 formation) does the source give for B1 here?
Answer: Its Km is 7.6 ± 1.8 µM.

Question: And the Vmax ([3]; other: UGT1A1, M1 formation)?
Answer: The Vmax was 0.17 ± 0.01 nmol/min/mg.

Question: What about the Km ([3]; other: UGT1A1, M2 formation) of the same molecule?
Answer: Its Km is 24 ± 14 µM.

Question: What about the Vmax ([3]; other: UGT1A1, M2 formation) of the same molecule?
Answer: The Vmax was 0.11 ± 0.03 nmol/min/mg.

B2: recombinant human UGT1A3 (Homo sapiens) (protein)
chain: GKVLVVPIDGSHWLSMREVLRELHARGHQAVVLTPEVNMHIKEENFFTLTTYAISWTQDEFDRHVLGHTQLYFETEHFLKKFFRSMAMLNNMSLVYHRSCVELLHNEALIRHLNATSFDVVLTDPVNLCAAVLAKYLSIPTVFFLRNIPCDLDFKGTQCPNPSSYIPRLLTTNSDHMTFMQRVKNMLYPLALSYICHAFSAPYASLASELFQREVSVVDILSHASVWLFRGDFVMDYPRPIMPNMVFIGGINCANRKPLSQEFEAYINASGEHGIVVFSLGSMVSEIPEKKAMAIADALGKIPQTVLWRYTGTRPSNLANNTILVKWLPQNDLLGHPMTRAFITHAGSHGVYESICNGVPMVMMPLFGDQMDNAKRMETKGAGVTLNVLEMTSEDLENALKAVINDKSYKENIMRLSSLHKDRPVEPLDLAVFWVEFVMRHKGAPHLRPAAHDLTWYQYHSLDVIGFLLAVVLTVAFITFKCCAYGYRKCLGKKGRVKKAHKSKTH
Question: What does the source list for B2?
Answer: Km [4]: 11 ± 4 µM; Vmax [4]: 0.32 ± 0.06 nmol/min/mg

B3: recombinant human UGT1A8 (Homo sapiens) (protein)
chain: GKLLVVPMDGSHWFTMQSVVEKLILRGHEVVVVMPEVSWQLGKSLNCTVKTYSTSYTLEDLDREFMDFADAQWKAQVRSLFSLFLSSSNGFFNLFFSHCRSLFNDRKLVEYLKESSFDAVFLDPFDACGLIVAKYFSLPSVVFARGIACHYLEEGAQCPAPLSYVPRILLGFSDAMTFKERVRNHIMHLEEHLFCQYFSKNALEIASEILQTPVTAYDLYSHTSIWLLRTDFVLDYPKPVMPNMIFIGGINCHQGKPLPMEFEAYINASGEHGIVVFSLGSMVSEIPEKKAMAIADALGKIPQTVLWRYTGTRPSNLANNTILVKWLPQNDLLGHPMTRAFITHAGSHGVYESICNGVPMVMMPLFGDQMDNAKRMETKGAGVTLNVLEMTSEDLENALKAVINDKSYKENIMRLSSLHKDRPVEPLDLAVFWVEFVMRHKGAPHLRPAAHDLTWYQYHSLDVIGFLLAVVLTVAFITFKCCAYGYRKCLGKKGRVKKAHKSKTH
Question: Which Km [5] does the source give for B3 here?
Answer: Its Km is 64 ± 9 µM.

Question: And the Vmax [5]?
Answer: Its Vmax is 11 ± 3 nmol/min/mg.

B4: recombinant human UGT1A10 (Homo sapiens) (protein)
chain: GKLLVVPMDGSHWFTMQSVVEKLILRGHEVVVVMPEVSWQLERSLNCTVKTYSTSYTLEDQNREFMVFAHAQWKAQAQSIFSLLMSSSSGFLDLFFSHCRSLFNDRKLVEYLKESSFDAVFLDPFDTCGLIVAKYFSLPSVVFTRGIFCHHLEEGAQCPAPLSYVPNDLLGFSDAMTFKERVWNHIVHLEDHLFCQYLFRNALEIASEILQTPVTAYDLYSHTSIWLLRTDFVLDYPKPVMPNMIFIGGINCHQGKPLPMEFEAYINASGEHGIVVFSLGSMVSEIPEKKAMAIADALGKIPQTVLWRYTGTRPSNLANNTILVKWLPQNDLLGHPMTRAFITHAGSHGVYESICNGVPMVMMPLFGDQMDNAKRMETKGAGVTLNVLEMTSEDLENALKAVINDKSYKENIMRLSSLHKDRPVEPLDLAVFWVEFVMRHKGAPHLRPAAHDLTWYQYHSLDVIGFLLAVVLTVAFITFKCCAYGYRKCLGKKGRVKKAHKSKTH
Question: For B4, which Km [6] is on record?
Answer: The Km was 28 ± 8 µM.

Question: What about the Vmax [6] of the same molecule?
Answer: The Vmax was 0.5 ± 0.1 nmol/min/mg.
